± gives the uncertainty stated by the source.
Experiment: protein stability index of a GFP-peptide fusion (yeast GPS) (PSI 1-4); higher = more stable; sorted into four equal gates, so the index is relative within each strain
Details: doa10∆
Outline: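 Tiled yeast protein peptides of 17 residues were each joined downstream of GFP, on plasmids that also express Cherry. The pooled library was maintained in yeast, and mid-log cultures in leucine-free medium were sorted into four equal gates on the GFP/Cherry ratio. Plasmids from every gate were amplified by PCR and sequenced on Illumina, with barcodes linking reads to strains. The protein stability index of a peptide is its gate-number-weighted read frequency summed over the gates.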

Question: Which protein stability index does the source give for EFEYDDEPDEQGNPKKR [CYT1] here?
Answer: 3.21 ± 0.076

Question: Which protein stability index does the source give for EFFSTNWLSIFNDFSNI [REC8] here?
Answer: 2.83 ± 0.075

Question: For EFIFGTYNMIDAAAEKR [ARP7], which protein stability index is on record?
Answer: 2.99 ± 0.057

Question: For EFISIYSNSHQMAVHIA [RET1], which protein stability index is on record?
Answer: 3.25 ± 0.11

Question: Which protein stability index does the source give for EFQIEDAIWSLVFQLAK [SRB8] here?
Answer: 3.63 ± 0.18

Question: Which protein stability index does the source give for EFTLFMDIAERIAVLHQ [YGL172W/NUP49] here?
Answer: 2.77 ± 0.075

Question: For EFVSYYYAHSIPSSKID [SNU114], which protein stability index is on record?
Answer: 2.01 ± 0.045

Question: With EGIEKMGVRTFSQKEMA [FAS2] as the sequence, how does the protein stability index read?
Answer: 2.96 ± 0.16

Question: For EGKRIAFGFVDRTLPHF [RPO21], which protein stability index is on record?
Answer: 2.89 ± 0.058

Question: Which protein stability index does the source give for EGLELLGWIHTQTEELK [PRP8] here?
Answer: 2.94 ± 0.1

Question: With EGRLYQVEYALESISHA [PRE9] as the sequence, how does the protein stability index read?
Answer: 2.09 ± 0.056

Question: Which protein stability index does the source give for EGTSISVHLIECYKQLF [YCS4] here?
Answer: 3.46 ± 0.14

Question: For EHFSHFGHIMEDFQVLR [YDL088C/ASM4], which protein stability index is on record?
Answer: 3.03 ± 0.063

Question: Which protein stability index does the source give for EHIIRDVHNGYILRYLH [COB] here?
Answer: 2.35 ± 0.23

Question: With EHRRYDDQLKQRRQNIR [RPT4] as the sequence, how does the protein stability index read?
Answer: 2.62 ± 0.18

Question: With EHSQVEQTCVKLLDSGC [SRP72] as the sequence, how does the protein stability index read?
Answer: 3.15 ± 0.068

Question: With EIAGLSPYERRLIDLIR [RPL36A] as the sequence, how does the protein stability index read?
Answer: 2.31 ± 0.088

Question: With EIEIEGVMSLLQKSSKS [YAR002W/NUP60] as the sequence, how does the protein stability index read?
Answer: 2.99 ± 0.11

Question: With EIFQLFTNPSVDIQIIN [SWI1] as the sequence, how does the protein stability index read?
Answer: 2.69 ± 0.081

Question: Which protein stability index does the source give for EILTNQQRGITYLNEVL [YGR119C/NUP57] here?
Answer: 2.7 ± 0.068

Question: With EIMYTGVSISVSFNSKQ [SMC3] as the sequence, how does the protein stability index read?
Answer: 1.61 ± 0.089

Question: For EISTSKKNNLEFGTYGK [RPN14], which protein stability index is on record?
Answer: 2.6 ± 0.08

Question: Which protein stability index does the source give for EITAKEVYDFTHAVGNN [FAS1] here?
Answer: 3 ± 0.065

Question: With EITQQEKGLNELSIRDV [SMC4] as the sequence, how does the protein stability index read?
Answer: 1.75 ± 0.11

Question: For EITVVKPDSDIVALSSE [PRE6], which protein stability index is on record?
Answer: 3.1 ± 0.058

Question: For EKAKSAGVQGSKVSKQQ [RPL24B], which protein stability index is on record?
Answer: 3.48 ± 0.14

Question: For EKIAAGYMQKPVYATIG [PRP28], which protein stability index is on record?
Answer: 2.87 ± 0.19

Question: Which protein stability index does the source give for EKIKDIHNTKLPAYSGE [POP1] here?
Answer: 3.09 ± 0.059

Question: Which protein stability index does the source give for EKIKKINYHQYISKAQN [SSN2] here?
Answer: 1.82 ± 0.055

Question: Which protein stability index does the source give for EKIMILLVPLALLTKRL [CSN12] here?
Answer: 1.95 ± 0.045

Question: Which protein stability index does the source give for EKKILNQFLKIKKKRKE [SMC1] here?
Answer: 2.98 ± 0.12

Question: For EKKNDENSTSNSKPEKS [YLR335W/NUP2], which protein stability index is on record?
Answer: 3.24 ± 0.086

Question: For EKLITSKLLVPQKNVKI [PRE10], which protein stability index is on record?
Answer: 2.55 ± 0.061

Question: With EKLKVNMEKEKDRIIDE [YIL149C/MLP2] as the sequence, how does the protein stability index read?
Answer: 3.37 ± 0.23

Question: For EKPQFKDGETTDANGKT [RPO26], which protein stability index is on record?
Answer: 3.36 ± 0.076

Question: For EKSDALVGVYRQQQENS [SMC1], which protein stability index is on record?
Answer: 3.25 ± 0.13

Question: Which protein stability index does the source give for ELAAKEEPAKEEAPAPT [FAS2] here?
Answer: 3.08 ± 0.2

Question: Which protein stability index does the source give for ELADLPKLKRIGLVKCT [GRR1] here?
Answer: 2.82 ± 0.085

Question: Which protein stability index does the source give for ELAESTTTKIIDSTDHI [LRP1] here?
Answer: 2.95 ± 0.1

Question: With ELAGGNASLTIEDEDEP [SMC1] as the sequence, how does the protein stability index read?
Answer: 3.03 ± 0.08

Question: Which protein stability index does the source give for ELAQYMKTNVHTQANEP [RGR1] here?
Answer: 2.81 ± 0.081

Question: With ELFKGYLADDIDADSLE [RPL5] as the sequence, how does the protein stability index read?
Answer: 3.02 ± 0.086

Question: With ELGAINLHALSMSLQSK [SWI1] as the sequence, how does the protein stability index read?
Answer: 2.39 ± 0.058

Question: For ELGISLEHPYGKEVEVL [SNU114], which protein stability index is on record?
Answer: 2.29 ± 0.082

Question: Which protein stability index does the source give for ELGNMTMLITGQRPDRA [SIN4] here?
Answer: 2.54 ± 0.09

Question: Which protein stability index does the source give for ELLDQVTLGREGQIIQR [CDC53] here?
Answer: 3.07 ± 0.14

Question: With ELLEYSDDIAENDNLDN [YCG1] as the sequence, how does the protein stability index read?
Answer: 3.06 ± 0.058

Question: For ELLKLLNDEYNYPQLTE [YCS4], which protein stability index is on record?
Answer: 3.09 ± 0.096

Question: With ELLPHYPFVTNDDIEWM [YJR042W/NUP85] as the sequence, how does the protein stability index read?
Answer: 2.54 ± 0.13

Question: Which protein stability index does the source give for ELMRIISRNGDTSYKID [SMC1] here?
Answer: 2.83 ± 0.087

Question: With ELNEEKKRLMDIDDELN [SMC2] as the sequence, how does the protein stability index read?
Answer: 3.23 ± 0.095

Question: For ELNVKHVKQCQETCDKL [SMC2], which protein stability index is on record?
Answer: 3 ± 0.18

Question: For ELPLLSPERFATLGIDP [RPT1], which protein stability index is on record?
Answer: 2.41 ± 0.13

Question: Which protein stability index does the source give for ELPLVITMPATNGKPDM [ARP7] here?
Answer: 2.9 ± 0.088

Question: Which protein stability index does the source give for ELRRFESSINTHPHAAD [SKI6] here?
Answer: 2.73 ± 0.081

Question: With ELSDSDRQIINEKMQLL [SIR4] as the sequence, how does the protein stability index read?
Answer: 2.76 ± 0.049

Question: With ELSIRFPQYKLTTFANQ [ARP7] as the sequence, how does the protein stability index read?
Answer: 1.69 ± 0.062

Question: Which protein stability index does the source give for ELTDKLSALNSEISSLK [SMC1] here?
Answer: 3.15 ± 0.11

Question: Which protein stability index does the source give for ELTKTKSSLYSAQDLLD [YIL149C/MLP2] here?
Answer: 2.67 ± 0.05

Question: For ELTQVPSARQKYMVKGG [UBP6], which protein stability index is on record?
Answer: 2.6 ± 0.13

Question: For EMAEKIDFTLLNRLLRL [PRP8], which protein stability index is on record?
Answer: 2.72 ± 0.058

Question: Which protein stability index does the source give for EMNLHVPQTEEARAEAI [RPO31] here?
Answer: 3.09 ± 0.1

Question: For EMVENSSENNQIILAYI [SRP68], which protein stability index is on record?
Answer: 3.21 ± 0.1

Question: With ENEISSLLAMHKHNIMK [CDC53] as the sequence, how does the protein stability index read?
Answer: 2.92 ± 0.079

Question: With ENFSNGISLVMEIVANA [MED1] as the sequence, how does the protein stability index read?
Answer: 2.12 ± 0.067

Question: With ENGDEDEDEDEDEDDDD [QCR6] as the sequence, how does the protein stability index read?
Answer: 2.01 ± 0.045

Question: Which protein stability index does the source give for ENLMVQRTCLMTVTFLI [YCS4] here?
Answer: 2.09 ± 0.053

Question: For ENSIGYNNRKCWPKDSR [PRP8], which protein stability index is on record?
Answer: 3.08 ± 0.16

Question: With EPEFHALSQSSLLKTKL [RRI1] as the sequence, how does the protein stability index read?
Answer: 2.15 ± 0.042

Question: With EPFNAGIKYHATPPLKR [SMC1] as the sequence, how does the protein stability index read?
Answer: 3.05 ± 0.071

Question: With EPILGQITLTFISELCS [YML103C/NUP188] as the sequence, how does the protein stability index read?
Answer: 2.6 ± 0.06

Question: With EPIYGVQYKLLSISVPS [SNU114] as the sequence, how does the protein stability index read?
Answer: 2.18 ± 0.12

Question: With EPKKDKESIVLPTVGFD [YOR098C/NUP1] as the sequence, how does the protein stability index read?
Answer: 2.43 ± 0.18

Question: For EPKKPSFTFASSKTSQP [YOR098C/NUP1], which protein stability index is on record?
Answer: 2.93 ± 0.047

Question: Which protein stability index does the source give for EPKQKANAVQNNNGNSA [SRP21] here?
Answer: 3.07 ± 0.083

Question: For EPNLAAQQDSTNVRLYS [ECM29], which protein stability index is on record?
Answer: 2.88 ± 0.11

Question: With EPPLSYEQHIENIEPLD [PRP8] as the sequence, how does the protein stability index read?
Answer: 2.44 ± 0.087

Question: For EPTYRLVRYGLAEKVEK [RPS24A], which protein stability index is on record?
Answer: 3.48 ± 0.19

Question: Which protein stability index does the source give for EQDALFITRLAQGLLHL [RPN1] here?
Answer: 2.88 ± 0.1

Question: With EQLSKQRDLYKRKEELV [SMC2] as the sequence, how does the protein stability index read?
Answer: 2.34 ± 0.15

Question: Which protein stability index does the source give for EQSNSRKRTRSEAEQID [YCG1] here?
Answer: 3.35 ± 0.19

Question: Which protein stability index does the source give for EQTEGEPKKKRGFLGLF [SRP68] here?
Answer: 3.1 ± 0.096

Question: Which protein stability index does the source give for ERAKNVNGLLQVLMDIN [GAL11] here?
Answer: 2.94 ± 0.086

Question: Which protein stability index does the source give for ERDCVIAYGASQLLLER [RET1] here?
Answer: 1.18 ± 0.058

Question: For ERDFYHSLREYINGKAT [RPO31], which protein stability index is on record?
Answer: 2.58 ± 0.044

Question: For ERDSYKLLASTEENKAN [YIL149C/MLP2], which protein stability index is on record?
Answer: 2.76 ± 0.054

Question: For ERFTKSKTLSLIQSYSL [FAS1], which protein stability index is on record?
Answer: 2.29 ± 0.063

Question: Which protein stability index does the source give for ERGGKFHESGSQYSTMV [RGR1] here?
Answer: 3.36 ± 0.12

Question: For ERKKQSDVLRFLQRVRV [RPL15B], which protein stability index is on record?
Answer: 2.08 ± 0.06

Question: Which protein stability index does the source give for ERKLKFSNRFLPVASPF [FAS1] here?
Answer: 3.02 ± 0.12

Question: For ERKRKSVRGAIVGPDLA [RPS6A], which protein stability index is on record?
Answer: 3.38 ± 0.091

Question: With ERLDKDKDRDTRRKRRQ [SNF5] as the sequence, how does the protein stability index read?
Answer: 2.82 ± 0.13

Question: With ERLVEFSNVNELQEKNV [YIL149C/MLP2] as the sequence, how does the protein stability index read?
Answer: 3.31 ± 0.23

Question: Which protein stability index does the source give for ERQMNFLTNELIRLQME [SWI3] here?
Answer: 3.07 ± 0.11

Question: For ERSYPSEFANQNQGGAQ [ROX3], which protein stability index is on record?
Answer: 2.98 ± 0.083

Question: With ERVPKTQLDKLRPRKDS [SMB1] as the sequence, how does the protein stability index read?
Answer: 3.1 ± 0.051

Question: With ERVTALKNCKISNINIP [SMC1] as the sequence, how does the protein stability index read?
Answer: 3.25 ± 0.1

Question: With ERYFDCCTKFFTMMTSE [PCI8] as the sequence, how does the protein stability index read?
Answer: 2.38 ± 0.059

Question: With ESDGRMFIEEPTRMVRV [SRP54] as the sequence, how does the protein stability index read?
Answer: 2.77 ± 0.082

Question: Which protein stability index does the source give for ESEEAETKDIRKQIQLL [SRB4] here?
Answer: 2.53 ± 0.081

Question: For ESFTEELSNELSRLSTA [MED1], which protein stability index is on record?
Answer: 3.25 ± 0.066

Question: With ESITKAMEFIFGNSLIC [SMC2] as the sequence, how does the protein stability index read?
Answer: 2.46 ± 0.071

Question: With ESITYQKIMILQRTILN [RGR1] as the sequence, how does the protein stability index read?
Answer: 1.61 ± 0.069

From the supplement of paper PMC9732359
